Results published in patent US20260184775A1 (Chugai, published 2026).

What was measured:
[1] = target: T1, recombinant human latent TGF-beta 1 (Flag-tagged human latent TGF-beta 1) (human, UniProt P01137 34-390); experiment: SPR, Biacore T200, 37 C, pH 7.4; antibody captured by anti-human Fc, latent TGF-beta 1 injected at 3.125 to 50 nM
T1 construct: Latent form: LAP plus mature TGF-beta 1; also called human recombinant latent TGF-beta 1; SLC
Procedure: (§1) The affinities of anti-latent TGF-beta 1 antibodies binding to human or mouse latent TGF-beta 1 at pH 7.4 were determined at 37 degrees C. using Biacore T200 instrument (GE Healthcare). Anti-human Fc (GE Healthcare) was immobilized onto all flow cells of a CM4 sensor chip using an amine coupling kit (GE Healthcare). All antibodies and analytes were prepared in ACES pH 7.4 containing 20 mM ACES, 150 mM NaCl, 1.2 mM CaCl₂), 0.05% Tween 20, 0.005% NaN3. Each antibody was captured onto the sensor surface by anti-human Fc. Antibody capture levels were aimed at 300 resonance unit (RU). For TBA865 and TBA873, recombinant human or mouse latent TGF-beta 1 was injected at 12.5 to 200 nM prepared by two-fold serial dilution, followed by dissociation. For TBS139 and TBS182, recombinant human or mouse latent TGF-beta 1 was injected at 3.125 to 50 nM prepared by two-fold serial dilution, followed by dissociation. The sensor surface was regenerated each cycle with 3M MgCl2.

[2] = target: T2, recombinant mouse latent TGF-beta 1 (Flag-tagged mouse latent TGF-beta 1) (mouse, UniProt P04202 34-390); experiment: SPR, Biacore T200, 37 C, pH 7.4; antibody captured by anti-human Fc, latent TGF-beta 1 at 3.125 to 50 nM as analyte; 1:1 model
T2 construct: also called mouse recombinant latent TGF-beta 1
T2 sequence (P04202 other isoform, or with tags, fused parts or gaps limits assumed): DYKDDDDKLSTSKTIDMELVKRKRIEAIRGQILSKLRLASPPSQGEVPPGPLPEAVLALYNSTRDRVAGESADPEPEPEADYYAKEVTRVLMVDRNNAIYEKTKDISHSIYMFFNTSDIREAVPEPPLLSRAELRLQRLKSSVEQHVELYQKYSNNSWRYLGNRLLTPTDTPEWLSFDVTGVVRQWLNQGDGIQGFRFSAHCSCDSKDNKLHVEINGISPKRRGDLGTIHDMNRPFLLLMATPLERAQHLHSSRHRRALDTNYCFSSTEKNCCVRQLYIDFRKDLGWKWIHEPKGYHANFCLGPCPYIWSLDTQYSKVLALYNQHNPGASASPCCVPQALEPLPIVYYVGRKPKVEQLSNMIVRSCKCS
Procedure: as §1

[3] = target: T3, human cell surface latent TGF-beta 1 (human, UniProt P01137 30-390); experiment: FACS on FreeStyle 293-F cells, PE-labelled secondary antibody, MFI
T3 construct: also called cell surface human latent TGF-beta 1
T3 sequence (P01137 30-390): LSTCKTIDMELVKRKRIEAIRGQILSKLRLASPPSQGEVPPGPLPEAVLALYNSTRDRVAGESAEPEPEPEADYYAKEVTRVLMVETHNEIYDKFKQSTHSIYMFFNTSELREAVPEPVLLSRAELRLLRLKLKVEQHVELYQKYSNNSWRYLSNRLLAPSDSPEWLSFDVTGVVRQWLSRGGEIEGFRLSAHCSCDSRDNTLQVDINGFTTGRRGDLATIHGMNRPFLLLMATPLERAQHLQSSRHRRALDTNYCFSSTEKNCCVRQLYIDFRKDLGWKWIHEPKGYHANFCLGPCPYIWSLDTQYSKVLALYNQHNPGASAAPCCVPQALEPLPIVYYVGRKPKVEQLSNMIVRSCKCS
Procedure: (§2) Anti-latent TGF-beta 1 antibodies were incubated with each cell line for 30 minutes at 4 degrees C. and washed with FACS buffer (2% FBS, 2 mM EDTA in PBS). Anti-KLH antibody (IC17) was used for a negative control antibody. Goat F(ab′)2 anti-Human IgG, Mouse ads-PE (Southern Biotech, Cat. 2043-09) or Goat F(ab′)2 anti-Mouse IgG(H+L), Human Ads-PE (Southern Biotech, Cat. 1032-09) was then added and incubated for 30 minutes at 4 degrees C. and washed with FACS buffer. Data acquisition was performed on an FACS Verse (Becton Dickinson), followed by analysis using FlowJo software (Tree Star) and GraphPad Prism software (GraphPad).

[4] = target: T4, mouse cell surface latent TGF-beta 1 (mouse, UniProt P04202 30-390); experiment: FACS on Ba/F3 cells, PE-labelled secondary antibody, MFI
T4 construct: Endogenous latent TGF-beta 1 (forming LLC) on Ba/F3 cells, and the latent TGF-beta 1 of mouse PBMC in the co-culture assay; also called cell surface mouse latent TGF-beta 1; latent TGF-beta 1 on Ba/F3 cells
T4 sequence (P04202 30-390): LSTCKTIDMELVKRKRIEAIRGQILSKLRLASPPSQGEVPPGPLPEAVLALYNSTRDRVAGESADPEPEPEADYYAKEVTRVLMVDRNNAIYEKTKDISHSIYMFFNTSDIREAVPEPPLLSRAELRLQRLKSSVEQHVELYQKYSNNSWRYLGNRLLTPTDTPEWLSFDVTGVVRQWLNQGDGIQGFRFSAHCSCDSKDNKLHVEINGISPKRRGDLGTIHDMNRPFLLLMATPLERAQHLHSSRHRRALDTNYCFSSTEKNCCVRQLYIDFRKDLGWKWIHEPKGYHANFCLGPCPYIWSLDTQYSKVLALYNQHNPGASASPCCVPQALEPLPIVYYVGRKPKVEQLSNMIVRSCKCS
Procedure: as §2

[5] = target: T2, recombinant mouse latent TGF-beta 1 …; experiment: SPR, Biacore T200, 37 C, pH 7.4; antibody captured by anti-human Fc, latent TGF-beta 1 at 12.5 to 200 nM as analyte; 1:1 model
Procedure: as §1

[6] = target: T1, recombinant human latent TGF-beta 1 …; experiment: as above
Procedure: as §1

[7] = target: T2, recombinant mouse latent TGF-beta 1 …; experiment: SPR, Biacore 8K, 37 C, pH 7.4; antibody captured by anti-human Fc, latent TGF-beta 1 as analyte; 1:1 model
[8] = target: T1, recombinant human latent TGF-beta 1 …; experiment: as above
[9] = target: T5, mouse mature TGF-beta 1 (mouse, UniProt P04202 279-390); experiment: ELISA on plate-coated mouse mature TGF-beta 1, detection with anti-human IgG-HRP
T5 construct: mature; also the active TGF-beta 1 released in the mouse PBMC co-culture assay
T5 sequence (P04202 279-390 limits assumed): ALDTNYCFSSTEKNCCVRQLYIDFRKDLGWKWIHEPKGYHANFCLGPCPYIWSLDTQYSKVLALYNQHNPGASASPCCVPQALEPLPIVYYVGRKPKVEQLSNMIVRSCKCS
Procedure: 384-well plate was coated with mouse mature TGF-beta 1 for overnight at 4 degrees C. After four times washing with TBS-T, the plate was blocked with blocking buffer (1×TBS/tween20+0.5% BSA+1× Block ace) for 2 hours at room temperature. After four times washing with TBS-T, antibody solution was added into the plate and incubated for 2 hours at room temperature. After four times washing with TBS-T, a diluted secondary antibody (goat anti-human IgG-HRP Santa Cruz Cat.sc-2453) was add into the plate and incubated for 1 hour at room temperature. After four times washing with TBS-T, TMB solution was added into the plate and incubated for 15 min at room temperature, then 1N sulfuric acid was added to stop the reaction. The absorbance was measured at 450 nm/570 nm.

[10] = target: T1, recombinant human latent TGF-beta 1 …; experiment: SPR, Biacore T200, 37 C, pH 7.4; antibody captured by anti-human Fc, latent TGF-beta 1 at 12.5 to 200 nM as analyte; 1:1 model; remark: listed apart in the source
Procedure: (§3) The affinities of anti-latent TGF-beta 1 antibodies binding to human latent TGF-beta 1 at pH 7.4 were determined at 37 degrees C. using Biacore T200 instrument (GE Healthcare). Anti-human Fc (GE Healthcare) was immobilized onto all flow cells of a CM4 sensor chip using an amine coupling kit (GE Healthcare). All antibodies and analytes were prepared in ACES pH 7.4 containing 20 mM ACES, 150 mM NaCl, 1.2 mM CaCl₂, 0.05% Tween 20, and 0.005% NaN₃. Each antibody was captured onto the sensor surface by anti-human Fc. Antibody capture levels were aimed at 300 resonance unit (RU). Recombinant human latent TGF-beta 1 was injected at a concentration of 12.5 to 200 nM prepared by two-fold serial dilution, followed by dissociation. Sensor surface was regenerated each cycle with 3M MgCl₂.

[11] = target: T1, recombinant human latent TGF-beta 1 …; experiment: SPR, Biacore T200, 37 C, pH 7.4; antibody captured by anti-human Fc; 1:1 model; footnote: slow off rate <1E-05, KD cannot be uniquely determined
Procedure: as §3

T1 sequence (P01137 other isoform, or with tags, fused parts or gaps limits assumed): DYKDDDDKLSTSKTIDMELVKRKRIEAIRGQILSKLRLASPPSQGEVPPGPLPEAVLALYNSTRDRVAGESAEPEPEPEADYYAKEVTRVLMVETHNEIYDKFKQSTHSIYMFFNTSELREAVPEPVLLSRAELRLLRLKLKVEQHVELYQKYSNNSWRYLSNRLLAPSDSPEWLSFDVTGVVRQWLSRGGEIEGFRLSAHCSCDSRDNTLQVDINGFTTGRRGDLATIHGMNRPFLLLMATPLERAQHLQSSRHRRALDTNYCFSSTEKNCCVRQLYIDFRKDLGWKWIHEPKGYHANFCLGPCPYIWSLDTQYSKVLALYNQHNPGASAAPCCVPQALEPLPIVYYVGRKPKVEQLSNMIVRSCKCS

B1: TBS139 (antibody, mouse IgG1, kappa, V domains shown)
VH: QSLEESGGDLVKPGASLTLTCTASGFSFSSYWMSWVRQAPGKGLEYIGMISIIGTTYYASWAKGRFTISKTSSTTVTLQVTSLTAADTATYFCARGYVSNSNYWGLWGPGTLVTVSS
VL: AYDMTQTPASVEVAVGGTVTIKCQASQNIGSNLAWYQQKPGQPPKLLIYYASDLASGVPSRFKGSGSGTRYTLTISGVQCDDAATYYCQQYWSSSNVDNTFGGGTEVVVKR
- binding result [1]: no binding (tested: 50 nM)
- Kd [2]: 0.0225 nM
- koff [2]: 3.96e-05 s⁻¹
- kon [2]: 1.76e+06 M⁻¹ s⁻¹

B2: TBA865 (antibody, human IgG1, kappa, V domains shown)
VH: QSLEESGGRLVTPGGSLTLTCTVSGIDLSSYAMGWVRQAPGKGLEYIGIISSSGLTDYASWVNGRFTISKTSTTVDLKITSPTTEDTATYFCARIYDLWGPGTLVTVSS
VL: DIVMTQTPASVEAAVGGTLTIKCQASQSISDQLSWYQQKPGQPPKLLIYRASTLESGVPSRFKGSGSGTQFTLTISDLECADAATYYCQSYYYSYSSTYGNTFGGGTKVEIKR
- binding result [3]: no binding
- binding result [4]: no binding
- Kd [5]: 0.158 nM
- koff [5]: 5.37e-05 s⁻¹
- kon [5]: 341000 M⁻¹ s⁻¹
- Kd [6]: 0.16 nM
- koff [6]: 6.55e-05 s⁻¹
- kon [6]: 410000 M⁻¹ s⁻¹

B3: TBA873 (antibody, human IgG1, kappa, V domains shown)
VH: QSLEESGGRLVTPGGSLTLTCTVSGIDLSSYAMGWVRQAPGKGLEYIGIISNSGLTDYASWVNGRFTISKTSTTVDLKITSLTTEDTATYFCARIYDLWGPGTLVTVSS
VL: DIVMTQTPASVEAAVGGTVTIKCQASQSISNQLSWYQQKPGQPPKLLIYRASTLASGVSSRFKGSGSGTQFTLTISDLECAAAATYYCQSYYYSVSSTYGNTFGGGTKVEIKR
- binding result [3]: no binding
- binding result [4]: no binding
- Kd [5]: 0.276 nM
- koff [5]: 5.15e-05 s⁻¹
- kon [5]: 187000 M⁻¹ s⁻¹
- Kd [6]: 0.292 nM
- koff [6]: 6.72e-05 s⁻¹
- kon [6]: 230000 M⁻¹ s⁻¹

B4: TBA1172 (antibody, human IgG1, kappa, V domains shown)
VH: QSVEESGGRLVTPGTPLTLTCTVSGFSLSNYAMGWVRQAPGKGLEWIGIISSGGVSYYASWARGRFTISKTSTTVDLKITSPTPEDTGTYFCARGQVPSSDTYYVPFNLWGPGTLVTVSS
VL: DIAMTQTPASVEAAVGGTVTIKCQASQSIGSDLAWYQQKPGQPPKLLIYRASTLASGVPLRFKGSGSGTQFTLTISDLECADAATYYCQTYYFTISSYGAFGGGTKVEIKR
notes: also called TBA1172aa-F1332m; TBS1172
- Kd [7]: 0.0919 nM
- koff [7]: 9.13e-05 s⁻¹
- kon [7]: 994000 M⁻¹ s⁻¹
- Kd [8]: 88 nM
- koff [8]: 0.0229 s⁻¹
- kon [8]: 261000 M⁻¹ s⁻¹
- binding result [9]: no binding (tested: 10 µg/mL)

B5: TBA0947 (antibody, human IgG1, kappa, V domains shown)
VH: QSVEESGGRLVTPGTPLTLTCTVSGFSLSSYAMNWVRQAPGKGLEWIGYIYTSGTTYHANWARGRFTISKTSTTVDLKMTSLTTEDTATYFCARGTGISDYYYWVMDLWGPGTLVTVSS
VL: AFELTQTPSSVEAAVGGTVTIKCQASQSISTYLAWYQQRPGQPPKLLIYKASTLASGVPSRFKGSGSGTDFTLTISDLECADAATYFCQSYCDGDSVGFGGGTKVEIKR
notes: also called TBA0947gg-F1332m; TBA947
- Kd [7]: 0.0419 nM
- koff [7]: 1.07e-05 s⁻¹
- kon [7]: 256000 M⁻¹ s⁻¹
- Kd [8]: 7.65 nM
- koff [8]: 0.00224 s⁻¹
- kon [8]: 292000 M⁻¹ s⁻¹
- binding result [9]: no binding (tested: 10 µg/mL)

B6: TBA1300 (antibody, human IgG1, kappa, V domains shown)
VH: QEQLKESGGGLVTPGGTLTLTCTVSGFSLSNYDMSWVRQAPGKGLEWIGAIYTAGTTSYASWAKGRFTISKTSTTVDLKITSPTTEDTATYFCARGGSSFFYYAAHNIWGPGTLVTVSS
VL: AYDMTQTPASVEAAVGGTVTIKCQASQSIGSNLAWYQQKPGQPPKLLIYDASKLPSGVPSRFKGSGSGTEFTLTISDLECDDAATYYCQQYYTTSDVDNTFGGGTKVEIKR
notes: also called TBA1300ff-F1332m
- Kd [10]: 0.0389 nM
- koff [10]: 2.31e-05 s⁻¹
- kon [10]: 593000 M⁻¹ s⁻¹

B7: TBA1277 (antibody, human IgG1, kappa, V domains shown)
VH: QSVEESGGRLVTPGTPLTLTCTASGFSLSNYDMSWVRQAPGKGLEWIGNIHTADTTSYARWAKGRFTISKTSTTVDLKITSPTSEDTATYFCARGGSDFFYYEPYNIWGPGTLVTVSS
VL: AYDMTQTPASVEAAVGGTVTVRCQASESIGSRLAWYQQKVGQPPKLLIYDASTLASGVSSRFKGSGSGTEFTLTISDLECDDAATYYCQQYYTSNNVENTFGGGTKVEIKR
notes: also called TBA1277cc-F1332m
- Kd [10]: 0.0188 nM
- koff [10]: 1.63e-05 s⁻¹
- kon [10]: 867000 M⁻¹ s⁻¹

B8: TBA1314 (antibody, human IgG1, kappa, V domains shown)
VH: QSVEESGGRLVTPGTPLTLTCTVSGFSLSNYAMTWVRQAPGKGLEWIGVIYAGGNTYYANWVNGRFTISKTSTTVDLKITSPTTEDTATYFCARDVGSSSSGVYFNIWGPGTLVTVSS
VL: AYDMTQTPASVEVAVGGTVTIKCQASQSIGSRLAWYQQKPGQPPKLLIYDASTLASGVSSRFKGSGSGTEFTLTISGVECADAATYYCQQDYSYRHVDNIFGGGTKVEIKR
notes: also called TBA1314aa-F1332m
- Kd [11]: ≤ 0.00738 nM
- koff [11]: < 1e-05 s⁻¹
- kon [10]: 402000 M⁻¹ s⁻¹

B9: TBA0946 (antibody, human IgG1, kappa, V domains shown)
VH: QSLEESGGRLVTPGTPLTLTCTTSGFSLNNYYMNWVRQAPGKGLEWIGLTDNDGTTYYANWAKGRFTVSKTSTTVDLKMTSPTTEDTATYFCVRDAGYSRNLWGPGTLVTVSS
VL: AYDMTQTPASVEVAVGGTVTIKCQASQSISSSLAWYQQKPGQPPKQLIYRASTLASGVSSRFKGSGSGTQFTLTISGVECADAATYYCQQTYSWSGLDNVFGGGTKVEIKR
notes: also called TBA0946bb-F1332m; TBA946
- Kd [7]: 0.0793 nM
- koff [7]: 7.66e-05 s⁻¹
- kon [7]: 966000 M⁻¹ s⁻¹
- binding result [9]: no binding (tested: 10 µg/mL)
